# Measurements reported in patent US20260242735A1 (UNIVERSIT T BASEL, published 2026).
# B1: Refmab #2 (antibody, V domains shown)
# VH: QVQLVQSGAEVKKPGSSVKVSCKASGGTFSDYAISWVRQAPGQGLEWMGRIIPILGVADYAQKFQGRVTITADKSTRTAYMELSSLRSEDTAVYYCARNWADAFDIWGQGTMVTVSS
# VL: DIQLTQSPSSLSASVGDRVTITCRASQGISSVLAWYQQKPGKAPKLLIYDASSLESGVPSRFSGSGSGTDFTLTISSLQPEDFATYYCQQFDSSITFGQGTKLEIK
# notes: Full-length format is human IgG1 Fc silent (PG-LALA); The alanine scan used IgG or Fab
# What was measured:
# Assay in all cases: alanine scan, flow cytometry;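 further: HEK293-T cells transiently expressing single-residue alanine mutants of CD33 (alanine swapped to serine), antibody binding read by fluorescence in duplicate, background-subtracted, expressed relative to wild-type CD33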
# human CD33 W22A = human CD33 W22A (human, UniProt P20138 18-364)
# Description: (§1) An alanine scan on human CD33 was performed to the determine the residues on CD33 that are involved in binding to the antibodies investigated. […] Briefly, a mutation library of CD33 was created by high-throughput, site-directed mutagenesis. Each residue was individually mutated to alanine, with alanine codons mutated to serine. The mutant library was arrayed in 384-well microplates and transiently transfected into HEK293-T. Following transfection, cells were incubated with the indicated antibodies (IgG or Fab) at concentrations pre-determined using an independent immunofluorescence titration curve on wild type CD33. […] Binding of each antibody to each mutant clone was determined in duplicates. For each point, background fluorescence was subtracted from the raw data, which were then normalized to antibody reactivity with wild type CD33.
# (§2) Critical residues for antibody binding (outlined in dark grey) were residues whose mutations led to a binding of the test Abs of less than 20%. Additional secondary residues (outlined in light grey) were identified that led to a binding of the test Abs of between 20 and 40% as compared to the wild type CD33.
# human CD33 L23A = human CD33 L23A (human, UniProt P20138 18-364)
# Description: as §1, §2
# human CD33 Q24A = human CD33 Q24A (human, UniProt P20138 18-364)
# Description: as §1, §2
# human CD33 V25A = human CD33 V25A (human, UniProt P20138 18-364)
# Description: as §1, §2
# human CD33 Q26A = human CD33 Q26A (human, UniProt P20138 18-364)
# human CD33 Q26A, sequence (P20138 18-364 Q26A limits assumed): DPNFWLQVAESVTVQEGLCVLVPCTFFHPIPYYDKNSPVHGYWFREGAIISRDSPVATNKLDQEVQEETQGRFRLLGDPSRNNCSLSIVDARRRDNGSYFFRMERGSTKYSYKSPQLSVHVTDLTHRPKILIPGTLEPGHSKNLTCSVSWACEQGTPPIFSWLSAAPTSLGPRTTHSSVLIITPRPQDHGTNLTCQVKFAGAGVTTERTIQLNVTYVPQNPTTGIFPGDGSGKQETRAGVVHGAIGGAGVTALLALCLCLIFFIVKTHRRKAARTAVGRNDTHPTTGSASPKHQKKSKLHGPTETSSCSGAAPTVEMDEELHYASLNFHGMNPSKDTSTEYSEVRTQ
# Description: as §1, §2
# human CD33 E27A = human CD33 E27A (human, UniProt P20138 18-364)
# Description: as §1, §2
# human CD33 S28A = human CD33 S28A (human, UniProt P20138 18-364)
# Description: as §1, §2
# human CD33 V31A = human CD33 V31A (human, UniProt P20138 18-364)
# Description: as §1, §2
# human CD33 Q32A = human CD33 Q32A (human, UniProt P20138 18-364)
# human CD33 Q32A, sequence (P20138 18-364 Q32A limits assumed): as the sequence (P20138 18-364 Q26A limits assumed) above, with A9Q, Q15A counted along it
# Description: as §1, §2
# human CD33 E33A = human CD33 E33A (human, UniProt P20138 18-364)
# Description: as §1, §2
# human CD33 G34A = human CD33 G34A (human, UniProt P20138 18-364)
# Description: as §1, §2
# human CD33 C36A = human CD33 C36A (human, UniProt P20138 18-364)
# human CD33 C36A, sequence (P20138 18-364 C36A limits assumed): as the sequence (P20138 18-364 Q26A limits assumed) above, with A9Q, C19A counted along it
# Description: as §1, §2
# human CD33 P40A = human CD33 P40A (human, UniProt P20138 18-364)
# human CD33 P40A, sequence (P20138 18-364 P40A limits assumed): as the sequence (P20138 18-364 Q26A limits assumed) above, with A9Q, P23A counted along it
# Description: as §1, §2
# human CD33 F43A = human CD33 F43A (human, UniProt P20138 18-364)
# human CD33 F43A, sequence (P20138 18-364 F43A limits assumed): as the sequence (P20138 18-364 Q26A limits assumed) above, with A9Q, F26A counted along it
# Description: as §1, §2
# human CD33 F44A = human CD33 F44A (human, UniProt P20138 18-364)
# Description: as §1, §2
# human CD33 H45A = human CD33 H45A (human, UniProt P20138 18-364)
# human CD33 H45A, sequence (P20138 18-364 H45A limits assumed): as the sequence (P20138 18-364 Q26A limits assumed) above, with A9Q, H28A counted along it
# Description: as §1, §2
# human CD33 I47A = human CD33 I47A (human, UniProt P20138 18-364)
# Description: as §1, §2
# human CD33 Y49A = human CD33 Y49A (human, UniProt P20138 18-364)
# human CD33 Y49A, sequence (P20138 18-364 Y49A limits assumed): as the sequence (P20138 18-364 Q26A limits assumed) above, with A9Q, Y32A counted along it
# Description: as §1, §2
# human CD33 D51A = human CD33 D51A (human, UniProt P20138 18-364)
# Description: as §1, §2
# human CD33 S54A = human CD33 S54A (human, UniProt P20138 18-364)
# Description: as §1, §2
# human CD33 V56A = human CD33 V56A (human, UniProt P20138 18-364)
# Description: as §1, §2
# human CD33 H57A = human CD33 H57A (human, UniProt P20138 18-364)
# human CD33 H57A, sequence (P20138 18-364 H57A limits assumed): as the sequence (P20138 18-364 Q26A limits assumed) above, with A9Q, H40A counted along it
# Description: as §1, §2
# human CD33 Y59A = human CD33 Y59A (human, UniProt P20138 18-364)
# Description: as §1, §2
# human CD33 A65S = human CD33 A65S (human, UniProt P20138 18-364)
# Description: as §1, §2
# human CD33 I66A = human CD33 I66A (human, UniProt P20138 18-364)
# Description: as §1, §2
# human CD33 S68A = human CD33 S68A (human, UniProt P20138 18-364)
# human CD33 S68A, sequence (P20138 18-364 S68A limits assumed): as the sequence (P20138 18-364 Q26A limits assumed) above, with A9Q, S51A counted along it
# Description: as §1, §2
# human CD33 R69A = human CD33 R69A (human, UniProt P20138 18-364)
# Description: as §1, §2
# human CD33 D70A = human CD33 D70A (human, UniProt P20138 18-364)
# human CD33 D70A, sequence (P20138 18-364 D70A limits assumed): as the sequence (P20138 18-364 Q26A limits assumed) above, with A9Q, D53A counted along it
# Description: as §1, §2
# human CD33 D18A = human CD33 D18A (human, UniProt P20138 19-364)
# Description: as §1, §2
# human CD33 P72A = human CD33 P72A (human, UniProt P20138 18-364)
# Description: as §1, §2
# human CD33 V73A = human CD33 V73A (human, UniProt P20138 18-364)
# Description: as §1, §2
# human CD33 T75A = human CD33 T75A (human, UniProt P20138 18-364)
# Description: as §1, §2
# human CD33 N76A = human CD33 N76A (human, UniProt P20138 18-364)
# Description: as §1, §2
# human CD33 K77A = human CD33 K77A (human, UniProt P20138 18-364)
# human CD33 K77A, sequence (P20138 18-364 K77A limits assumed): as the sequence (P20138 18-364 Q26A limits assumed) above, with A9Q, K60A counted along it
# Description: as §1, §2
# human CD33 L78A = human CD33 L78A (human, UniProt P20138 18-364)
# human CD33 L78A, sequence (P20138 18-364 L78A limits assumed): as the sequence (P20138 18-364 Q26A limits assumed) above, with A9Q, L61A counted along it
# Description: as §1, §2
# human CD33 Q80A = human CD33 Q80A (human, UniProt P20138 18-364)
# Description: as §1, §2
# human CD33 Q83A = human CD33 Q83A (human, UniProt P20138 18-364)
# Description: as §1, §2
# human CD33 E85A = human CD33 E85A (human, UniProt P20138 18-364)
# Description: as §1, §2
# human CD33 Q87A = human CD33 Q87A (human, UniProt P20138 18-364)
# human CD33 Q87A, sequence (P20138 18-364 Q87A limits assumed): as the sequence (P20138 18-364 Q26A limits assumed) above, with A9Q, Q70A counted along it
# Description: as §1, §2
# human CD33 G88A = human CD33 G88A (human, UniProt P20138 18-364)
# human CD33 G88A, sequence (P20138 18-364 G88A limits assumed): as the sequence (P20138 18-364 Q26A limits assumed) above, with A9Q, G71A counted along it
# Description: as §1, §2
# human CD33 F90A = human CD33 F90A (human, UniProt P20138 18-364)
# Description: as §1, §2
# human CD33 F21A = human CD33 F21A (human, UniProt P20138 18-364)
# Description: as §1, §2
binder,measurement,setting,value
B1,Mean % WT Binding,human CD33 W22A,110 % WT
same,Mean % WT Binding,human CD33 L23A,83.4 % WT
same,Mean % WT Binding,human CD33 Q24A,103 % WT
same,Mean % WT Binding,human CD33 V25A,87.1 % WT
same,Mean % WT Binding,human CD33 Q26A,111 % WT
same,Mean % WT Binding,human CD33 E27A,111 % WT
same,Mean % WT Binding,human CD33 S28A,117 % WT
same,Mean % WT Binding,human CD33 V31A,106 % WT
same,Mean % WT Binding,human CD33 Q32A,108 % WT
same,Mean % WT Binding,human CD33 E33A,120 % WT
same,Mean % WT Binding,human CD33 G34A,105 % WT
same,Mean % WT Binding,human CD33 C36A,117 % WT
same,Mean % WT Binding,human CD33 P40A,101 % WT
same,Mean % WT Binding,human CD33 F43A,10.6 % WT
same,Mean % WT Binding,human CD33 F44A,1.2 % WT
same,Mean % WT Binding,human CD33 H45A,73.6 % WT
same,Mean % WT Binding,human CD33 I47A,2.1 % WT
same,Mean % WT Binding,human CD33 Y49A,44.2 % WT
same,Mean % WT Binding,human CD33 D51A,59 % WT
same,Mean % WT Binding,human CD33 S54A,112 % WT
same,Mean % WT Binding,human CD33 V56A,80.7 % WT
same,Mean % WT Binding,human CD33 H57A,112 % WT
same,Mean % WT Binding,human CD33 Y59A,95.7 % WT
same,Mean % WT Binding,human CD33 A65S,112 % WT
same,Mean % WT Binding,human CD33 I66A,118 % WT
same,Mean % WT Binding,human CD33 S68A,112 % WT
same,Mean % WT Binding,human CD33 R69A,138 % WT
same,Mean % WT Binding,human CD33 D70A,110 % WT
same,Mean % WT Binding,human CD33 D18A,119 % WT
same,Mean % WT Binding,human CD33 P72A,114 % WT
same,Mean % WT Binding,human CD33 V73A,99.1 % WT
same,Mean % WT Binding,human CD33 T75A,114 % WT
same,Mean % WT Binding,human CD33 N76A,106 % WT
same,Mean % WT Binding,human CD33 K77A,123 % WT
same,Mean % WT Binding,human CD33 L78A,108 % WT
same,Mean % WT Binding,human CD33 Q80A,112 % WT
same,Mean % WT Binding,human CD33 Q83A,107 % WT
same,Mean % WT Binding,human CD33 E85A,114 % WT
same,Mean % WT Binding,human CD33 Q87A,118 % WT
same,Mean % WT Binding,human CD33 G88A,110 % WT
same,Mean % WT Binding,human CD33 F90A,104 % WT
same,Mean % WT Binding,human CD33 F21A,120 % WT
